# PMC8849337
# What was measured:
# Experiment in all cases: pull-down
# [1] = biological target: MBP-3C–PPM-1.D–truncated–10×HIS (C. elegans)
# [2] = biological target: MBP–PPM-1.D–10×HIS (C. elegans)
# [3] = biological target: PPM-1.D(568-766) (C. elegans)
binder,measurement,setting,value
GST–CHK-2–3×FLAG (enzyme) MVRGTKRRRSSAEKPIVVVPVTRDDTMPVDEDLVVGESQCAASKPFAKLVGVRRGISSIDLADDHFVCGRGSDDAPTNFNFSQVAKDVGLYRFISKIQFSIDRDTETRRIYLHDHSRNGTLVNQEMIGKGLSRELMNGDLISIGIPALIIFVYESADADHHPEELTKKYHVTSHSLGKGGFGKVLLGYKKSDRSVVAIKQLNTQFSTRCSRAIAKTRDIRNEVEVMKKLSHPNIVAIYDWITVAKYSYMVIEYVGGGEFFSKVVDSKYNRMGLGESLGKYFAFQLIDAILYLHSVGICHRDIKPENILCSDKAERCILKLTDFGMAKNSVNRMKTRCGTPSYNAPEIVANEGVEYTPKVDIWSLGCVLFITFSGYPPFSEEYTDMTMDEQVLTGRLIFHAQWRRITVETQNMIKWMLTVEPSNRPSAVELMSTQWMKCADCRTAKQDILKSIKPISAAAPAALQTTQAGPVKKAKM,fold binding relative to the MBP affinity tag (NRDE2∆N control),[1],4 times
same,fold binding relative to PPM-1.D lacking the C terminus,[2],70 fold
same,fold less binding than PPM-1.D,[3],10 times
same,fold more binding than PPM-1.D^trunc,[3],7 times
